{"source": "patent US20250262210A1", "about": "(TRUSTEES OF COLUMBIA UNIVERSITY IN THE CITY OF NEW YORK, published 2025)", "key": {"BUB1": {"molecular_target": "BUB1 (human, UniProt O43683 1-1085, limits assumed)", "sequence (O43683 whole entry, the tested form may be a part)": "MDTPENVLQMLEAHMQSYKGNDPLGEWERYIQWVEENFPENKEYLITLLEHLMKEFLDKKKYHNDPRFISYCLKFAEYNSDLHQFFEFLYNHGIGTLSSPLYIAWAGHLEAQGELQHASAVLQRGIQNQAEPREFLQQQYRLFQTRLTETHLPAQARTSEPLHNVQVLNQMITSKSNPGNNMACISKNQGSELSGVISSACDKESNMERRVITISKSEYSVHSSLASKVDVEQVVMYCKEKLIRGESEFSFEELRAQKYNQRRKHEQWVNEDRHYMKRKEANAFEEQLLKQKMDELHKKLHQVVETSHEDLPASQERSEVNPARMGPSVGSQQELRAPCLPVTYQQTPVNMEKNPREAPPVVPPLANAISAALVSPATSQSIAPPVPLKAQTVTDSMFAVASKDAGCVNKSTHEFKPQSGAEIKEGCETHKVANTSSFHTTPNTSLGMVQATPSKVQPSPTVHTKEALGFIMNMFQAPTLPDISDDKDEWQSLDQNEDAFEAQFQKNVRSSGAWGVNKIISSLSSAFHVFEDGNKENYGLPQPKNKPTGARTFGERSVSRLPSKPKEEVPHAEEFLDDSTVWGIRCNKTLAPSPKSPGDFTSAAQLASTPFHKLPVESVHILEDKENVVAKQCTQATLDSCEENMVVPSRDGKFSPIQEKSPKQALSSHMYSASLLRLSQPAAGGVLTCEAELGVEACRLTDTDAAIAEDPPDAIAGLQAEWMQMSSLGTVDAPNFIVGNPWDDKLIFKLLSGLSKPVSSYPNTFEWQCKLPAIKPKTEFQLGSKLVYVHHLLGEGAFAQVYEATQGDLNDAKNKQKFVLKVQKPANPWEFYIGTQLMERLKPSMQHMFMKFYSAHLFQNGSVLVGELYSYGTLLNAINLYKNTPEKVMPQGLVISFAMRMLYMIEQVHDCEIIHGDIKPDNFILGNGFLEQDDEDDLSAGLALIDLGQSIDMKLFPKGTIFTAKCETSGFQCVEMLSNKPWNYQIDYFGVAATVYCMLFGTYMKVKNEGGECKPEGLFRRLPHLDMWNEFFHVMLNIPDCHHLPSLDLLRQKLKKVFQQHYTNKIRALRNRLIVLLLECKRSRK", "experiment": "IP/MS, LZTR1 R810W-FLAG, U87", "outline": "(§1)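 Gel slices were reduced with 5 mM DTT, alkylated with 11 mM IAA and digested overnight at 37° C. with trypsin. Peptides were analysed on an Orbitrap Fusion Tribrid by LC-MS/MS.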"}, "AMBRA1": {"molecular_target": "T1, AMBRA1 (human, UniProt Q9C0C7 1-1298, limits assumed)", "T1 sequence (looked up)": "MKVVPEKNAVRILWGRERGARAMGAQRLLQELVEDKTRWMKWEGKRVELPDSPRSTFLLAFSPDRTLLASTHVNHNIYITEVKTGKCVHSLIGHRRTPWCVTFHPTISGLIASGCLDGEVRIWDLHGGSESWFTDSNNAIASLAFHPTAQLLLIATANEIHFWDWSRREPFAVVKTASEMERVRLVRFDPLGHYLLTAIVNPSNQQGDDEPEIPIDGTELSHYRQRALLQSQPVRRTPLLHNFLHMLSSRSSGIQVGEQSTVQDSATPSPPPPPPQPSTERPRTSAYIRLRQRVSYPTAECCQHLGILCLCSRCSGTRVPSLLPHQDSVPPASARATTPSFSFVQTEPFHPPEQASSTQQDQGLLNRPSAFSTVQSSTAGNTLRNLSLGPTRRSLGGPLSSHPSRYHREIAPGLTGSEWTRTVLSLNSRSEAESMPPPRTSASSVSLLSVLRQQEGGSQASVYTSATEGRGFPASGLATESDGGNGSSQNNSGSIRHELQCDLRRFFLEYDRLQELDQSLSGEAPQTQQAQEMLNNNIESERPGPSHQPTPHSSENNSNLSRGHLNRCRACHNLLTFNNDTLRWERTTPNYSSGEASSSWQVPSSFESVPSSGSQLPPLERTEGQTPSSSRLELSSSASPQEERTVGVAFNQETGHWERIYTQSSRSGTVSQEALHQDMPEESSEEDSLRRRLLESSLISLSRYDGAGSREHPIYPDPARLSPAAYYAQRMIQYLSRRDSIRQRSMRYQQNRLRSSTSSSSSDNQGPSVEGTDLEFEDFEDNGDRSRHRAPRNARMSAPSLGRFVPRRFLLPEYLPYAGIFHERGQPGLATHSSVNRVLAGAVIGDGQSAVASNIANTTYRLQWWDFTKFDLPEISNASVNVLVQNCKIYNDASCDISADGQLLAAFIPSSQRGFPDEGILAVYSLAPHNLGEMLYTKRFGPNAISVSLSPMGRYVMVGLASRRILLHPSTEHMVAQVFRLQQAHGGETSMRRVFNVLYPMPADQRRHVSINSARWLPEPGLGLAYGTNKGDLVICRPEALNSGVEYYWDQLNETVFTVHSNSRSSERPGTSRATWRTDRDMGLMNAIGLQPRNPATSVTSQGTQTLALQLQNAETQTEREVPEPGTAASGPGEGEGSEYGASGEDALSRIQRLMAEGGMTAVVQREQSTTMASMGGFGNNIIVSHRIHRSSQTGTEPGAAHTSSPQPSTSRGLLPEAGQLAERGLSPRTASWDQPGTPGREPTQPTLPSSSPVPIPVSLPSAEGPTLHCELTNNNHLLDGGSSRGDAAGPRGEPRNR", "experiment": "IP/MS, LZTR1 R810W-FLAG, U87", "outline": "as §1"}}, "data": [{"binder": "LZTR1 R810W-FLAG (other, human, UniProt Q8N653 1-840, looked up, Stably expressed in U87 cells by lentivirus; also called LZTR1-FLAG-R810W; LZTR1 RW; not shown: FLAG tag) MAGPGSTGGQIGAAALAGGARSKVAPSVDFDHSCSDSVEYLTLNFGPFETVHRWRRLPPCDEFVGARRSKHTVVAYKDAIYVFGGDNGKTMLNDLLRFDVKDCSWCRAFTTGTPPAPRYHHSAVVYGSSMFVFGGYTGDIYSNSNLKNKNDLFEYKFATGQWTEWKIEGRLPVARSAHGATVYSDKLWIFAGYDGNARLNDMWTIGLQDRELTCWEEVAQSGEIPPSCCNFPVAVCRDKMFVFSGQSGAKITNNLFQFEFKDKTWTRIPTEHLLRGSPPPPQRRYGHTMVAFDRHLYVFGGAADNTLPNELHCYDVDFQTWEVVQPSSDSEVGGAEVPERACASEEVPTLTYEERVGFKKSRDVFGLDFGTTSAKQPTQPASELPSGRLFHAAAVISDAMYIFGGTVDNNIRSGEMYRFQFSCYPKCTLHEDYGRLWESRQFCDVEFVLGEKEECVQGHVAIVTARSRWLRRKITQARERLAQKLEQEAAPVPREAPGVAAGGARPPLLHVAIREAEARPFEVLMQFLYTDKIKYPRKGHVEDVLLIMDVYKLALSFQLCRLEQLCRQYIEASVDLQNVLVVCESAARLQLSQLKEHCLNFVVKESHFNQVIMMKEFERLSSPLIVEIVRRKQQPPPRTPLDQPVDIGTSLIQDMKAYLEGAGAEFCDITLLLDGHPRPAHKAILAARSSYFEAMFRSFMPEDGQVNISIGEMVPSRQAFESMLRYIYYGEVNMPPEDSLYLFAAPYYYGFYNNRLQAYCKQNLEMNVTVQNVLQILEAADKTQALDMKRHCLHIIVHQFTKVSKLPTLWSLSQQLLLDIIDSLASHISDKQCAELGADI", "values": [{"measurement": "binding result", "setting": "BUB1", "result": "binds"}, {"measurement": "binding result", "setting": "AMBRA1", "result": "binds"}]}]}
